Source: patent US20210032664, “ENGINEERED MEGANUCLEASES WITH RECOGNITION SEQUENCES FOUND IN THE HUMAN BETA-2 MICROGLOBULIN GENE” (Precision Biosciences, Inc., published 2021)

Tests used:
Experiment in all cases: cell_activity; human T cells, 1 ug mRNA, day 3
Conditions in all cases: tags: N-terminal SV40 NLS
B2M 13-14x.286 = target: T1, B2M 13-14x.286 (Artificial Sequence)
T1 chain: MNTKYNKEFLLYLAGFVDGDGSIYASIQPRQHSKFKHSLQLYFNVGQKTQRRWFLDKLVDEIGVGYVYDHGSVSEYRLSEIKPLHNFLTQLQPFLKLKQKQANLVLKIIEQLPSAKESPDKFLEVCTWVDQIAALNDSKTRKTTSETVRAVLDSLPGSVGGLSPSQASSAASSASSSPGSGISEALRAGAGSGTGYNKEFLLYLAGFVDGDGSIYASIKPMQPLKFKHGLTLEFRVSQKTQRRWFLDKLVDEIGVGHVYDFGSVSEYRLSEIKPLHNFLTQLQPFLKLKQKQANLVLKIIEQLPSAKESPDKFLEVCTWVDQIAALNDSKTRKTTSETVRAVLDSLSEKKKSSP
In short: (§1)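 Donor T cells activated 3 days with anti-CD3/anti-CD28, then electroporated with 1 μg meganuclease mRNA. Knockout scored by loss of β-2 microglobulin surface staining on CD3+ cells.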

B2M 13-14x.362 = target: T2, B2M 13-14x.362 (Artificial Sequence)
T2 chain: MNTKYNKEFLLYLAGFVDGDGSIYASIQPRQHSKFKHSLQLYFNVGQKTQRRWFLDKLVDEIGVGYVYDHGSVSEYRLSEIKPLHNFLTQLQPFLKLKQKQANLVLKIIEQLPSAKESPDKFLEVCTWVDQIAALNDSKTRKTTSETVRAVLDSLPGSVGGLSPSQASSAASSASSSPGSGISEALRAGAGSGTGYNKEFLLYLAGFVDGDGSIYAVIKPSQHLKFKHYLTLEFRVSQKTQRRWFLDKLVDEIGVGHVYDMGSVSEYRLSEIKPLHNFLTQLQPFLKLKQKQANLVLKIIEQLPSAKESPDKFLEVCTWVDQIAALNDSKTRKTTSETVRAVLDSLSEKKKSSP
In short: as §1

B2M 13-14x.371 = target: T3, B2M 13-14x.371 (Artificial Sequence)
T3 chain: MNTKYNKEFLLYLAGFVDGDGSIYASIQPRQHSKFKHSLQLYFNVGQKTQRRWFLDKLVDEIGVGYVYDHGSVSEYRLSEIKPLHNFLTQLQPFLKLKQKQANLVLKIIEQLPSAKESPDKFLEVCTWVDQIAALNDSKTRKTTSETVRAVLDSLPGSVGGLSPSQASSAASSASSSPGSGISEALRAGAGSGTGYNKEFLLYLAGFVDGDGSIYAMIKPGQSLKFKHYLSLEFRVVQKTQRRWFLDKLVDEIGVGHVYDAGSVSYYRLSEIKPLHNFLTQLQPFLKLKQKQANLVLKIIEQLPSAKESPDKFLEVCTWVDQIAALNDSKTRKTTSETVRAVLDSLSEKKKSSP
In short: as §1

B2M 13-14x.456 = target: T4, B2M 13-14x.456 (Artificial Sequence)
T4 chain: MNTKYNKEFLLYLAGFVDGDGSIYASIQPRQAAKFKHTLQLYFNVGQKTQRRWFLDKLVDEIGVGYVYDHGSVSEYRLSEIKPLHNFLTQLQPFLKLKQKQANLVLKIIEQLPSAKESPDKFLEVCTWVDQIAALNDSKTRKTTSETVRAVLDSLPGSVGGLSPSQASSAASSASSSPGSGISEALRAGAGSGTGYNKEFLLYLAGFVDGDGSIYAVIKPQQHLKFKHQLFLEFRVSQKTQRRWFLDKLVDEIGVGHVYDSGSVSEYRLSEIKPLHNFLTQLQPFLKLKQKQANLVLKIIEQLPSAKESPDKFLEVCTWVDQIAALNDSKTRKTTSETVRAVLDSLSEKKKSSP
In short: as §1

B2M 13-14x.338 = target: T5, B2M 13-14x.338 (Artificial Sequence)
T5 chain: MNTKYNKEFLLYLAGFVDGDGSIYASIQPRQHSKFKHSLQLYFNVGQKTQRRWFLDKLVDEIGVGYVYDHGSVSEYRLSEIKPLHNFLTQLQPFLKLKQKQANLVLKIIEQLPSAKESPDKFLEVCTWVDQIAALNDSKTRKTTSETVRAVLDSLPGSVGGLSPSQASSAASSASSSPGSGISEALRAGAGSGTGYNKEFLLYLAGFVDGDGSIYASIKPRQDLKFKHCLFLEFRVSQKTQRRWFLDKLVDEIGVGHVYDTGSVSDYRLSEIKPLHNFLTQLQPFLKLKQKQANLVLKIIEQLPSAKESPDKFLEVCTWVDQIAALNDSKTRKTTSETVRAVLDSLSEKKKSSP
In short: as §1

B1: B2M 13-14 recognition sequence (dsDNA)
DNA 1: CTATCTCTTGTACTACACTGAA
DNA 2: TTCAGTGTAGTACAAGAGATAG
Work on B1 yielded an activity (B2M 13-14x.286) of 44.6 % B2M-negative, an activity (B2M 13-14x.362) of 37.8 % B2M-negative and an activity (B2M 13-14x.371) of 22.6 % B2M-negative. The activity (B2M 13-14x.456) was 15.7 % B2M-negative and the activity (B2M 13-14x.338) was 4.68 % B2M-negative.
